{
  "source": "paper PMC9765456",
  "target": "AP2-μ2 (plasmid-encoded: μ2-HA; μ2-myc in AP2 core and hemicomplex) (UniProt P84092)",
  "assay": "anti-FLAG co-IP, Western blot",
  "conditions": "reference: wild type; sites S31,S32",
  "data": [
    {"substance": "HPV-16 E7 (from UniProt P03129) S31A/S32A", "values": [
      {"measurement": "binding against the reference", "result": "weaker"}
    ]}
  ]
}
